Results published in publication PMC5042579 (Molecular Biology of the Cell, 2016).

Legend:
[1] = target: T1, tau (human 1N4R-tau isoform, 412 amino acids) (human, UniProt P10636-7 1-412); test: TIRF microscopy of reconstituted dynamic microtubules
[2] = target: T1, tau (human 1N4R-tau isoform, 412 amino …); test: pull-down
[3] = target: T1, tau (human 1N4R-tau isoform, 412 amino …); test: other fluorescence titration

B1: GFP-EB1-Δ-tail (GFP-EB1 lacking the last 20 amino acid residues) (domain or fragment)
chain: MAVNVYSTSVTSDNLSRHDMLAWINESLQLNLTKIEQLCSGAAYCQFMDMLFPGSIALKKVKFQAKLEHEYIQNFKILQAGFKRMGVDKIIPVDKLVKGKFQDNFEFVQWFKKFFDANYDGKDYDPVAARQGQETAVAPSLVAPALNKPKKPLTSSSAAPQRPISTQRTAAAPKAGPGVVRKNPGVGNGDDEAAELMQQVNVLKLTVEDLEKERDFYFGKLRNIELICQENEGENDPVLQRIVDILYA
binding result [1]: binds

B2: biotinylated EB1 (mouse end-binding protein 1) (natural protein)
chain: MAVNVYSTSVTSDNLSRHDMLAWINESLQLNLTKIEQLCSGAAYCQFMDMLFPGSIALKKVKFQAKLEHEYIQNFKILQAGFKRMGVDKIIPVDKLVKGKFQDNFEFVQWFKKFFDANYDGKEYDPVAARQGQETAVAPSLVAPALSKPKKPLGSSTAAPQRPIATQRTTAAPKAGPGMVRKNPGVGNGDDEAAELMQQVKVLKLTVEDLEKERDFYFGKLRNIELICQENEGENDPVLQRIVDILYATDEGFVIPDEGGPQEEQEEY
modifications: biotin (EZ-Link NHS-Chromogenic Biotinylation Kit)
binding result [2]: binds

B3: EB1 (mouse end-binding protein 1), not labelled (natural protein)
chain: B2 chain
Kd [3]: 1700 ± 1100 nM
